Paper PMC4161250

Substrate: O=[N+]([O-])c1ccc(OP(=O)(O)O)cc1
Experiment: purified protein
Conditions: 2 mM Mn2+, 50 mM Tris-HCl pH 8.0, 37 °C

B1: StpA (Enterococcus faecium DO) (protein)
chain: MQIEYQSDVGRRRNTNQDYASVFTSRSGLKLAVLADGMGGHRAGDIASQMAVTNLGEAWEKQEAVDDEKIAQWFIQSIQEENMLIYQRGQEQPEYNGMGTTIVAAALSDDWFTIANVGDSRAYLIREDKIMQLTEDHSLVNELVKSGEISEEMAVNHPRKNILTRSVGMPGTVEVDVSTHLWQLKDRLLLCSDGLTNMLSEEEIGTIINQEGPLSHKVTELIDRANEAGGADNITVLLIEYKEDSV
How did the Km turn out when B1 was run?
The Km was 660 ± 90 µM.

What about the kcat of the same protein?
The kcat was 1,200 ± 100 min^-1.

And the kcat/Km?
The kcat/Km was 30000 ± 4830 M⁻¹ s⁻¹.
